Reference: PMC10746786 (2023)

B1: FLAG-tagged EIF4G2 WT [human] / HADHB [human (endogenous in HEK293T)] (parent complex)
chain 1: MESAIAEGGASRFSASSGGGGSRGAPQHYPKTAGNSEFLGKTPGQNAQKWIPARSTRRDDNSAANNSANEKERHDAIFRKVRGILNKLTPEKFDKLCLELLNVGVESKLILKGVILLIVDKALEEPKYSSLYAQLCLRLAEDAPNFDGPAAEGQPGQKQSTTFRRLLISKLQDEFENRTRNVDVYDKRENPLLPEEEEQRAIAKIKMLGNIKFIGELGKLDLIHESILHKCIKTLLEKKKRVQLKDMGEDLECLCQIMRTVGPRLDHERAKSLMDQYFARMCSLMLSKELPARIRFLLQDTVELREHHWVPRKAFLDNGPKTINQIRQDAVKDLGVFIPAPMAQGMRSDFFLEGPFMPPRMKMDRDPLGGLADMFGQMPGSGIGTGPGVIQDRFSPTMGRHRSNQLFNGHGGHIMPPTQSQFGEMGGKFMKSQGLSQLYHNQSQGLLSQLQGQSKDMPPRFSKKGQLNADEISLRPAQSFLMNKNQVPKLQPQITMIPPSAQPPRTQTPPLGQTPQLGLKTNPPLIQEKPAKTSKKPPPSKEELLKLTETVVTEYLNSGNANEAVNGVREMRAPKHFLPEMLSKVIILSLDRSDEDKEKASSLISLLKQEGIATSDNFMQAFLNVLDQCPKLEVDIPLVKSYLAQFAARAIISELVSISELAQPLESGTHFPLFLLCLQQLAKLQDREWLTELFQQSKVNMQKMLPEIDQNKDRMLEILEGKGLSFLFPLLKLEKELLKQIKLDPSPQTIYKWIKDNISPKLHVDKGFVNILMTSFLQYISSEVNPPSDETDSSSAPSKEQLEQEKQLLLSFKPVMQKFLHDHVDLQVSALYALQVHCYNSNFPKGMLLRFFVHFYDMEIIEEEAFLAWKEDITQEFPGKGKALFQVNQWLTWLETAEEEESEEEAD
chain 2: AAPAVQTKTKKTLAKPNIRNVVVVDGVRTPFLLSGTSYKDLMPHDLARAALTGLLHRTSVPKEVVDYIIFGTVIQEVKTSNVAREAALGAGFSDKTPAHTVTMACISANQAMTTGVGLIASGQCDVIVAGGVELMSDVPIRHSRKMRKLMLDLNKAKSMGQRLSLISKFRFNFLAPELPAVSEFSTSETMGHSADRLAAAFAVSRLEQDEYALRSHSLAKKAQDEGLLSDVVPFKVPGKDTVTKDNGIRPSSLEQMAKLKPAFIKPYGTVTAANSSFLTDGASAMLIMAEEKALAMGYKPKAYLRDFMYVSQDPKDQLLLGPTYATPKVLEKAGLTMNDIDAFEFHEAFSGQILANFKAMDSDWFAENYMGRKTKVGLPPLEKFNNWGGSLSLGHPFGATGCRLVMAAANRLRKEGGQYGLVAACAAGGQGHAMIVEAYPK
B2: FLAG-tagged EIF4G2 WT [human] / EIF4A2 [human (endogenous in HEK293T)] (parent complex)
chain 1: B1 chain 1
chain 2: MSGGSADYNREHGGPEGMDPDGVIESNWNEIVDNFDDMNLKESLLRGIYAYGFEKPSAIQQRAIIPCIKGYDVIAQAQSGTGKTATFAISILQQLEIEFKETQALVLAPTRELAQQIQKVILALGDYMGATCHACIGGTNVRNEMQKLQAEAPHIVVGTPGRVFDMLNRRYLSPKWIKMFVLDEADEMLSRGFKDQIYEIFQKLNTSIQVVLLSATMPTDVLEVTKKFMRDPIRILVKKEELTLEGIKQFYINVEREEWKLDTLCDLYETLTITQAVIFLNTRRKVDWLTEKMHARDFTVSALHGDMDQKERDVIMREFRSGSSRVLITTDLLARGIDVQQVSLVINYDLPTNRENYIHRIGRGGRFGRKGVAINFVTEEDKRILRDIETFYNTTVEEMPMNVADLI
B3: FLAG-tagged EIF4G2 WT [human] / PRRC2C [human (endogenous in HEK293T)] (parent complex)
chain 1: B1 chain 1
chain 2: MSEKSGQSTKAKDGKKYATLSLFNTYKGKSLETQKTTARHGLQSLGKVGISRRMPPPANLPSLKAENKGNDPNVNIVPKDGTGWASKQEQHEEEKTPEVPPAQPKPGVAAPPEVAPAPKSWASNKQGGQGDGIQVNSQFQQEFPSLQAAGDQEKKEKETNDDNYGPGPSLRPPNVACWRDGGKAAGSPSSSDQDEKLPGQDESTAGTSEQNDILKVVEKRIACGPPQAKLNGQQAALASQYRAMMPPYMFQQYPRMTYPPLHGPMRFPPSLSETNKGLRGRGPPPSWASEPERPSILSASELKELDKFDNLDAEADEGWAGAQMEVDYTEQLNFSDDDEQGSNSPKENNSEDQGSKASENNENKKETDEVSNTKSSSQIPAQPSVAKVPYGKGPSFNQERGTSSHLPPPPKLLAQQHPPPDRQAVPGRPGPFPSKQQVADEDEIWKQRRRQQSEISAAVERARKRREEEERRMEEQRKAACAEKLKRLDEKLGILEKQPSPEEIREREREKEREREKELEKEQEQEREKEREKDRERQQEKEKELEKEQEKQREMEKERKQEKEKELERQKEKEKELQKMKEQEKECELEKEREKLEEKIEPREPNLEPMVEKQESENSCNKEEEPVFTRQDSNRSEKEATPVVHETEPESGSQPRPAVLSGYFKQFQKSLPPRFQRQQEQMKQQQWQQQQQQGVLPQTVPSQPSSSTVPPPPHRPLYQPMQPHPQHLASMGFDPRWLMMQSYMDPRMMSGRPAMDIPPIHPGMIPPKPLMRRDQMEGSPNSSESFEHIARSARDHAISLSEPRMLWGSDPYPHAEPQQATTPKATEEPEDVRSEAALDQEQITAAYSVEHNQLEAHPKADFIRESSEAQVQKFLSRSVEDVRPHHTDANNQSACFEAPDQKTLSAPQEERISAVESQPSRKRSVSHGSNHTQKPDEQRSEPSAGIPKVTSRCIDSKEPIERPEEKPKKEGFIRSSEGPKPEKVYKSKSETRWGPRPSSNRREEVNDRPVRRSGPIKKPVLRDMKEEREQRKEKEGEKAEKVTEKVVVKPEKTEKKDLPPPPPPPQPPAPIQPQSVPPPIQPEAEKFPSTETATLAQKPSQDTEKPLEPVSTVQVEPAVKTVNQQTMAAPVVKEEKQPEKVISKDLVIERPRPDSRPAVKKESTLPPRTYWKEARERDWFPDQGYRGRGRGEYYSRGRSYRGSYGGRGRGGRGHTRDYPQYRDNKPRAEHIPSGPLRQREESETRSESSDFEVVPKRRRQRGSETDTDSEIHESASDKDSLSKGKLPKREERPENKKPVKPHSSFKPDNHVRIDNRLLEKPYVRDDDKAKPGFLPKGEPTRRGRGGTFRRGGRDPGGRPSRPSTLRRPAYRDNQWNPRQSEVPKPEDGEPPRRHEQFIPIAADKRPPKFERKFDPARERPRRQRPTRPPRQDKPPRFRRLREREAASKSNEVVAVPTNGTVNNVAQEPVNTLGDISGNKTPDLSNQNSSDQANEEWETASESSDFNERRERDEKKNADLNAQTVVKVGENVLPPKREIAKRSFSSQRPVDRQNRRGNNGPPKSGRNFSGPRNERRSGPPSKSGKRGPFDDQPAGTTGVDLINGSSAHHQEGVPNGTGQKNSKDSTGKKREDPKPGPKKPKEKVDALSQFDLNNYASVVIIDDHPEVTVIEDPQSNLNDDGFTEVVSKKQQKRLQDEERRKKEEQVIQVWNKKNANEKGRSQTSKLPPRFAKKQATGIQQAQSSASVPPLASAPLPPSTSASVPASTSAPLPATLTPVPASTSAPVPASTLAPVLASTSAPVPASPLAPVSASASVSASVPASTSAAAITSSSAPASAPAPTPILASVSTPASVTILASASIPILASALASTSAPTPAPAASSPAAPVITAPTIPASAPTASVPLAPASASAPAPAPTPVSAPNPAPPAPAQTQAQTHKPVQNPLQTTSQSSKQPPPSIRLPSAQTPNGTDYVASGKSIQTPQSHGTLTAELWDNKVAPPAVLNDISKKLGPISPPQPPSVSAWNKPLTSFGSAPSSEGAKNGQESGLEIGTDTIQFGAPASNGNENEVVPVLSEKSADKIPEPKEQRQKQPRAGPIKAQKLPDLSPVENKEHKPGPIGKERSLKNRKVKDAQQVEPEGQEKPSPATVRSTDPVTTKETKAVSEMSTEIGTMISVSSAEYGTNAKESVTDYTTPSSSLPNTVATNNTKMEDTLVNNVPLPNTLPLPKRETIQQSSSLTSVPPTTFSLTFKMESARKAWENSPNVREKGSPVTSTAPPIATGVSSSASGPSTANYNSFSSASMPQIPVASVTPTASLSGAGTYTTSSLSTKSTTTSDPPNICKVKPQQLQTSSLPSASHFSQLSCMPSLIAQQQQNPQVYVSQSAAAQIPAFYMDTSHLFNTQHARLAPPSLAQQQGFQPGLSQPTSVQQIPIPIYAPLQGQHQAQLSLGAGPAVSQAQELFSSSLQPYRSQPAFMQSSLSQPSVVLSGTAIHNFPTVQHQELAKAQSGLAFQQTSNTQPIPILYEHQLGQASGLGGSQLIDTHLLQARANLTQASNLYSGQVQQPGQTNFYNTAQSPSALQQVTVPLPASQLSLPNFGSTGQPLIALPQTLQPPLQHTTPQAQAQSLSRPAQVSQPFRGLIPAGTQHSMIATTGKMSEMELKAFGSGIDIKPGTPPIAGRSTTPTSSPFRATSTSPNSQSSKMNSIVYQKQFQSAPATVRMTQPFPTQFAPQILSQPNLVPPLVRAPHTNTFPAPVQRPPMALASQMPPPLTTGLMSHARLPHVARGPCGSLSGVRGNQAQAALKAEQDMKAKQRAEVLQSTQRFFSEQQQSKQIGGGKAQKVDSDSSKPPETLTDPPGVCQEKVEEKPPPAPSIATKPVRTGPIKPQAIKTEETKS

Variants of: B1
Assay: co-immunoprecipitation followed by mass spectrometry; FLAG-tagged EIF4G2 transfected into HEK293T cells; corrected for EIF4G2 levels in IP; read off a plot

| ratio to parent | Variant |
| --- | --- |
| ~4.9 | chain 1 R178Q |

Variants of: B2
Assay: as above

| ratio to parent | Variant |
| --- | --- |
| ~5.6 | chain 1 R178Q |

Variants of: B3
Assay: as above

| ratio to parent | Variant |
| --- | --- |
| ~1.6 | chain 1 N785K |
| ~2.4 | chain 1 R165C |
